# Results from publication PMC4323031 (Malaria Journal, 2015).
# B1: recombinant 2.44IgG1 (chimeric mouse-human IgG1:kappa1 mAb) (antibody, V domains shown)
# VH: DVQLQESGPGLVKPSQSLSLTCTVTGYSITSDFAWNWIRQFPGNRLEWMGYMGYTGSTSYNPSLRGRISITRDTSKNQFFLQLNSVTTEDTATYYCARGDYYGSRGYFDVWGAGTTVTVSS
# VL: EIVLTQSPALMAASPGEKVTITCSVSSSIRSSNLHWYQQKSDTSPKPWIYGTSNLASGVPVRFSGSGSGTSYSLTISTMEAEDAATYYCQQWSSYPFTFGSGTKLEIK
# notes: also called recombinant mAb; recombinant antibody
# Target: T1, mE-ERH, fusion protein comprising the EGF-like domains of MSP1-19, MSP8 and MSP4 (Plasmodium falciparum, 3D7 assumed from …, UniProt Q7KWJ2)
# T1 construct: source: Nicotiana benthamiana leaves (agroinfiltration, ER-retained), purified
# Assay: SPR
# Conditions: both partners purified
binder,measurement,value
B1,Kd,10.2 nM
same,koff,0.000926 s⁻¹
same,kon,90400 M⁻¹ s⁻¹
